Reference: patent US20150376260A1

Experiments:
[1] = biological target: CD80 (B7.1), human, on lymphatic cancer cell lines (human) (UniProt P33681); assay: cell-based or functional assay
[2] = biological target: CD86 (B7.2), human, on lymphatic cancer cell lines (human) (UniProt P42081); assay: cell-based or functional assay
UniProt P42081, sequence (P42081 24-329): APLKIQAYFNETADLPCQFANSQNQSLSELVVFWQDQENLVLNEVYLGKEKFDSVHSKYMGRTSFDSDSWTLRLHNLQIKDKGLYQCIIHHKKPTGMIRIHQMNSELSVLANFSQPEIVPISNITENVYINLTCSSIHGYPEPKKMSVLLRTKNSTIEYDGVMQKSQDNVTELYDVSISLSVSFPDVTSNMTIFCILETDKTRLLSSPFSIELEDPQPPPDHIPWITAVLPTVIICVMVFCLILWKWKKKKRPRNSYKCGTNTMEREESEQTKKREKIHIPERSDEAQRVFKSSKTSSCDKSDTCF

UniProt P33681, sequence (P33681 35-288): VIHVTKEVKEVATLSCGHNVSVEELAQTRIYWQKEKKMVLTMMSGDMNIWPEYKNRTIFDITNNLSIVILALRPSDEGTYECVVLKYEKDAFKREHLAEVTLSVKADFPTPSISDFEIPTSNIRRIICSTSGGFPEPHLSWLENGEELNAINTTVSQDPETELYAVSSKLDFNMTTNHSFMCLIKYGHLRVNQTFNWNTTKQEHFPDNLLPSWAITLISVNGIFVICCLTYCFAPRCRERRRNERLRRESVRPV

## CTLA4-FasL fusion protein
[1]
  cancer killing activity (in-vitro bioassay, MTS cell viability) on lymphatic cancer cells: 0.02 nM
[2]
  cancer killing activity (in-vitro bioassay, MTS cell viability) on lymphatic cancer cells: 0.02 nM
